Source: IntAct's records for PubMed 17721439
Values belong to the substance of their own block, whether it stands above or below them.

Tests used:
wnk4_human WNK4 [1] = biological target: wnk4_human WNK4 (UniProt Q96J92)
wnk4_human WNK4 [2] = biological target: wnk4_human WNK4 (UniProt Q96J92); remark: listed apart in the source
wnk4_human WNK4 [3] = biological target: wnk4_human WNK4 (UniProt Q96J92); remark: listed apart in the source
SLC12A2 [4] = biological target: SLC12A2 (UniProt P55011)
wnk1_human WNK1 [5] = biological target: wnk1_human WNK1 (UniProt Q9H4A3)
Sequence of wnk1_human WNK1 (Q9H4A3 whole entry, looked up): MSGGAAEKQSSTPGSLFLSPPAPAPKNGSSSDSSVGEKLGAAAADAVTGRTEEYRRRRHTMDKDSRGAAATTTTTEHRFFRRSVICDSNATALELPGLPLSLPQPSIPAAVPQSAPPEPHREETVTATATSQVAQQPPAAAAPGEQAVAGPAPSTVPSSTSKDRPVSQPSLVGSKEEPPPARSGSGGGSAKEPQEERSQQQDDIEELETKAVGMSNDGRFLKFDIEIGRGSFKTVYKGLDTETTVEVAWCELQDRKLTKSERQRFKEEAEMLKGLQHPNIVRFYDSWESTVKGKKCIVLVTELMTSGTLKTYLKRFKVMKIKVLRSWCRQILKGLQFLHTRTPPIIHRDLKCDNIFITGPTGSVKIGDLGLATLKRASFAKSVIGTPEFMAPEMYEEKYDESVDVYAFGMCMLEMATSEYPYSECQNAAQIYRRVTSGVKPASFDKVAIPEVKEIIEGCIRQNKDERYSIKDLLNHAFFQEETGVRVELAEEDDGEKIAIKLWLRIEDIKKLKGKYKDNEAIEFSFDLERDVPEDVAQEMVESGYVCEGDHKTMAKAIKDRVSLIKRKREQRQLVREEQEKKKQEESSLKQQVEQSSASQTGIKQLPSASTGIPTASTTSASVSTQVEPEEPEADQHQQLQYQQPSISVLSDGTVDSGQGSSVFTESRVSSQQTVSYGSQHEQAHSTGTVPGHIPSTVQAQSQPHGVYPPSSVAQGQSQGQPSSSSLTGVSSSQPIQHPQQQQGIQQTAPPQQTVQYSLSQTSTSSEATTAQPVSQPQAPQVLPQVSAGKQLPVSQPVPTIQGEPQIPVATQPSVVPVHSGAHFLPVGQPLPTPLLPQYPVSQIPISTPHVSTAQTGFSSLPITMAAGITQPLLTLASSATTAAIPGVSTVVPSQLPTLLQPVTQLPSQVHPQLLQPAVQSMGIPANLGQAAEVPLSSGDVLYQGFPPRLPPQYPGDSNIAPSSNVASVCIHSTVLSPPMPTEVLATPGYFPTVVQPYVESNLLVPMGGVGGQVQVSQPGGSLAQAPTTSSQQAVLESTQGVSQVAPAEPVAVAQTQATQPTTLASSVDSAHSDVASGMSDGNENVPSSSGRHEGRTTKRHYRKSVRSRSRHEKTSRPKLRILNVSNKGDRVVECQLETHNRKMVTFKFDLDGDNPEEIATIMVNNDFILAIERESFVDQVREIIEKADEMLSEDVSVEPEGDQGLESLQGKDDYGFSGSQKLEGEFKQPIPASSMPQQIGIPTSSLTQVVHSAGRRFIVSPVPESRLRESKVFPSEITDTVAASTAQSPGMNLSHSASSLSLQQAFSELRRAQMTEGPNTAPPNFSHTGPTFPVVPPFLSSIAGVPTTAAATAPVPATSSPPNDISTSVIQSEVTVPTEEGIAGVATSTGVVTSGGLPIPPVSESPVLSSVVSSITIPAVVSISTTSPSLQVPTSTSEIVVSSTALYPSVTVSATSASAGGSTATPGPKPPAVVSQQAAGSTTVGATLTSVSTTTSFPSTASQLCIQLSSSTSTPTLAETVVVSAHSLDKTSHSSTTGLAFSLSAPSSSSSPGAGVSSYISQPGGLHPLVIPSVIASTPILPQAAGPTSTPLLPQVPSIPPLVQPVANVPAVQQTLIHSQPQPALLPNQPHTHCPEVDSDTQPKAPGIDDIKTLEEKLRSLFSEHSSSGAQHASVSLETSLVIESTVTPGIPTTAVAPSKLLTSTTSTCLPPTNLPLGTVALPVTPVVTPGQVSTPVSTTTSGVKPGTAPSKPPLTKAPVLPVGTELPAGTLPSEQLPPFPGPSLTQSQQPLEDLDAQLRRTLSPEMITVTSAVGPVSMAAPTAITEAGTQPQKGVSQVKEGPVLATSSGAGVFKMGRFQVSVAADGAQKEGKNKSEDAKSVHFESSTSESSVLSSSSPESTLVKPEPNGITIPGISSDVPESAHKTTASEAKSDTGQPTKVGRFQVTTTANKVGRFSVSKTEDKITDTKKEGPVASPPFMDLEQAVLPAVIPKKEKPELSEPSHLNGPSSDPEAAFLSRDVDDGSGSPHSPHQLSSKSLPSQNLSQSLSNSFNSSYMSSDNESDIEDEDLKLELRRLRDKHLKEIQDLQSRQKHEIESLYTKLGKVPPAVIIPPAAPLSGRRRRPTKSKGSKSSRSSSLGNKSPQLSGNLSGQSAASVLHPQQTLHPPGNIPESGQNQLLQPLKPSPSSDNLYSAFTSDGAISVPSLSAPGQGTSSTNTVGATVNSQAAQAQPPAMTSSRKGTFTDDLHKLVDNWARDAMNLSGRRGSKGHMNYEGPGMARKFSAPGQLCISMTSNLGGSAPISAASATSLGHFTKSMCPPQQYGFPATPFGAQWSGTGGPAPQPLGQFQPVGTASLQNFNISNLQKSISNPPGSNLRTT

wnk4_human WNK4 [6] = biological target: wnk4_human WNK4 (UniProt Q96J92); remark: listed apart in the source
wnk4_human WNK4 [7] = biological target: wnk4_human WNK4 (UniProt Q96J92); remark: listed apart in the source
wnk4_human WNK4 [8] = biological target: wnk4_human WNK4 (UniProt Q96J92); remark: listed apart in the source
wnk4_human WNK4 [9] = biological target: wnk4_human WNK4 (UniProt Q96J92); remark: listed apart in the source
wnk4_human WNK4 [10] = biological target: wnk4_human WNK4 (UniProt Q96J92); remark: listed apart in the source
wnk1_human WNK1 [11] = biological target: wnk1_human WNK1 (UniProt Q9H4A3); remark: listed apart in the source
SLC12A2 [12] = biological target: SLC12A2 (UniProt P55011); remark: listed apart in the source
wnk4_human WNK4 [13] = biological target: wnk4_human WNK4 (UniProt Q96J92); remark: listed apart in the source

Sequence of wnk4_human WNK4 (Q96J92 whole entry): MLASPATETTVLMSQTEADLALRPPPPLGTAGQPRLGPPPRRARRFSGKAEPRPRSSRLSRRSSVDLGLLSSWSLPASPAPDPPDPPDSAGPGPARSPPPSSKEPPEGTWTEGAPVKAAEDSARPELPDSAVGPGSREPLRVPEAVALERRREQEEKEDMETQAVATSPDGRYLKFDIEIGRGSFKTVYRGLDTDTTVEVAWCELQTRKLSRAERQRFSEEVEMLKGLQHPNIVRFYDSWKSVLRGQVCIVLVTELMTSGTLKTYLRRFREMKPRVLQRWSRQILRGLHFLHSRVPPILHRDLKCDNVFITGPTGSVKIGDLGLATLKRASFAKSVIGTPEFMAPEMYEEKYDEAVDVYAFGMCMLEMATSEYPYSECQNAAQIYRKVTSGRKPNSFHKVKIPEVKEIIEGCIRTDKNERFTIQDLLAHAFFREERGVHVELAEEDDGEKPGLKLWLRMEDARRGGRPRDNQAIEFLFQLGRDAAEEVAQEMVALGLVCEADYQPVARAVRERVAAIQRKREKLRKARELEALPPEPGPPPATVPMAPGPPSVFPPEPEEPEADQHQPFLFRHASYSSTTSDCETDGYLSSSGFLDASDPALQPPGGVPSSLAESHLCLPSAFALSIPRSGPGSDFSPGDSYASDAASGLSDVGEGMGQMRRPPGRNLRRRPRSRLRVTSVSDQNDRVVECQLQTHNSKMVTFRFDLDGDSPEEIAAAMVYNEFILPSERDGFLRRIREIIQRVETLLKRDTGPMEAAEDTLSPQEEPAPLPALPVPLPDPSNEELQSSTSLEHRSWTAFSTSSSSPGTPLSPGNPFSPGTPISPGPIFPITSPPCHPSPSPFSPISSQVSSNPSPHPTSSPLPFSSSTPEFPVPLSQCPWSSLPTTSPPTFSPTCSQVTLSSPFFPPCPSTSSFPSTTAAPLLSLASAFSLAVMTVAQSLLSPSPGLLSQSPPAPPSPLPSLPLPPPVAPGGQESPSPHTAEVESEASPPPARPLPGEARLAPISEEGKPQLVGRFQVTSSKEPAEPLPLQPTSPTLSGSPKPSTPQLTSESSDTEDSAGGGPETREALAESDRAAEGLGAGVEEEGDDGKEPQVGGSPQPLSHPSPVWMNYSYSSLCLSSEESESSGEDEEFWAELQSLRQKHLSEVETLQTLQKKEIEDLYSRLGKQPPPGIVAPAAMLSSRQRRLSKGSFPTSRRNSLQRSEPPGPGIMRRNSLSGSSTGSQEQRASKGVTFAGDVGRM
Sequence of Serine/threonine-protein kinase OSR1 (Homo sapiens), O95747 L473A (O95747 whole entry L473A): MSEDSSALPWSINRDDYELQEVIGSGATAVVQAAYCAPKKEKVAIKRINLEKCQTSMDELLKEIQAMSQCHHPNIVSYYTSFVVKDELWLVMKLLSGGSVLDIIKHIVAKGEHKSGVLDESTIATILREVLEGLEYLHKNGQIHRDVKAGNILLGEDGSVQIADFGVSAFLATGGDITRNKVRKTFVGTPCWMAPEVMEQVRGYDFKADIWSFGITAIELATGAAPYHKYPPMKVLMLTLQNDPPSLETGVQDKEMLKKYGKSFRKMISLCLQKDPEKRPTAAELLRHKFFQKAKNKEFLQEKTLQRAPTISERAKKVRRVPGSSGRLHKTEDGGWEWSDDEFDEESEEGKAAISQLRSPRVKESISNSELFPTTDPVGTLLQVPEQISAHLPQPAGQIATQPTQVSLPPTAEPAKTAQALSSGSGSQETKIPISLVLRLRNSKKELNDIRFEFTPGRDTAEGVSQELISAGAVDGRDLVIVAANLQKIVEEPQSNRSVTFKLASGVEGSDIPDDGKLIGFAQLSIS
Sequence of Serine/threonine-protein kinase OSR1 (Homo sapiens), O95747 D459A (O95747 whole entry D459A): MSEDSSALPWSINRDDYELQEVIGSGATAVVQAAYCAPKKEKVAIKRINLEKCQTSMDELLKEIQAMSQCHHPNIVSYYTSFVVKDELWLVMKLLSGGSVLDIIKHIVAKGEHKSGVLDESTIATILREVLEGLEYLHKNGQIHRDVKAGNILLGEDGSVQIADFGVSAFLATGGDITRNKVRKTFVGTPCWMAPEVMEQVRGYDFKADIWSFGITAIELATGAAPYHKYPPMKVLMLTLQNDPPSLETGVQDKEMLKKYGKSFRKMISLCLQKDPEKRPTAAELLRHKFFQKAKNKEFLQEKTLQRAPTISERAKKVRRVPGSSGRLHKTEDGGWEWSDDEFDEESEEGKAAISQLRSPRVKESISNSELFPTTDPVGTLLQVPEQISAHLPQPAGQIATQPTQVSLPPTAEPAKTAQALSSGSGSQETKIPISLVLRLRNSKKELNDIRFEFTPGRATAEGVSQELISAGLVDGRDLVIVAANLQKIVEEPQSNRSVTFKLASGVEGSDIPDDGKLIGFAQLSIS

Substance: Serine/threonine-protein kinase OSR1 (Homo sapiens), O95747 A471L
effect of a mutation on the interaction (wnk4_human WNK4 [1]): decreasing interaction

Substance: Serine/threonine-protein kinase OSR1 (Homo sapiens), O95747 E467A
effect of a mutation on the interaction (wnk4_human WNK4 [7]): disrupting interaction

Substance: Serine/threonine-protein kinase OSR1 (Homo sapiens), O95747 L468F
effect of a mutation on the interaction (wnk4_human WNK4 [9]): disrupting interaction

Substance: Serine/threonine-protein kinase OSR1 (Homo sapiens), O95747 L473A
effect of a mutation on the interaction (wnk4_human WNK4 [10]): disrupting interaction | effect of a mutation on the interaction (wnk1_human WNK1 [11]): disrupting interaction | effect of a mutation on the interaction (SLC12A2 [12]): disrupting interaction

Substance: Serine/threonine-protein kinase OSR1 (Homo sapiens), O95747 R451A
effect of a mutation on the interaction (wnk4_human WNK4 [13]): decreasing interaction

Next, values leading:

effect of a mutation on the interaction (wnk4_human WNK4 [2]): decreasing interaction
Substance: Serine/threonine-protein kinase OSR1 (Homo sapiens), O95747 D449A

effect of a mutation on the interaction (wnk4_human WNK4 [3]): disrupting interaction | effect of a mutation on the interaction (SLC12A2 [4]): disrupting interaction | effect of a mutation on the interaction (wnk1_human WNK1 [5]): disrupting interaction
Substance: Serine/threonine-protein kinase OSR1 (Homo sapiens), O95747 D459A

effect of a mutation on the interaction (wnk4_human WNK4 [6]): decreasing interaction
Substance: Serine/threonine-protein kinase OSR1 (Homo sapiens), O95747 E446A

effect of a mutation on the interaction (wnk4_human WNK4 [8]): disrupting interaction
Substance: Serine/threonine-protein kinase OSR1 (Homo sapiens), O95747 I450A
